The chains are these.
B1: STAT1 (unphosphorylated, wild-type), fluorophore fusion [not stated] / STAT1 (unphosphorylated, wild-type), fluorophore fusion [not stated] (parent)
chain 1: MSQWYELQQLDSKFLEQVHQLYDDSFPMEIRQYLAQWLEKQDWEHAANDVSFATIRFHDLLSQLDDQYSRFSLENNFLLQHNIRKSKRNLQDNFQEDPIQMSMIIYSCLKEERKILENAQRFNQAQSGNIQSTVMLDKQKELDSKVRNVKDKVMCIEHEIKSLEDLQDEYDFKCKTLQNREHETNGVAKSDQKQEQLLLKKMYLMLDNKRKEVVHKIIELLNVTELTQNALINDELVEWKRRQQSACIGGPPNACLDQLQNWFTIVAESLQQVRQQLKKLEELEQKYTYEHDPITKNKQVLWDRTFSLFQQLIQSSFVVERQPCMPTHPQRPLVLKTGVQFTVKLRLLVKLQELNYNLKVKVLFDKDVNERNTVKGFRKFNILGTHTKVMNMEESTNGSLAAEFRHLQLKEQKNAGTRTNEGPLIVTEELHSLSFETQLCQPGLVIDLETTSLPVVVISNVSQLPSGWASILWYNMLVAEPRNLSFFLTPPCARWAQLSEVLSWQFSSVTKRGLNVDQLNMLGEKLLGPNASPDGLIPWTRFCKENINDKNFPFWLWIESILELIKKHLLPLWNDGCIMGFISKERERALLKDQQPGTFLLRFSESSREGAITFTWVERSQNGGEPDFHAVEPYTKKELSAVTFPDIIRNYKVMAAENIPENPLKYLYPNIDKDHAFGKYYSRPKEAPEPMELDGPKGTGYIKTELISVSEVHPSRLQTTDNLLPMSPEEFDEVSRIVGSVEFDSMMNTV
chain 2: B1 chain 1
B2: STAT5B (unphosphorylated, wild-type), fluorophore fusion [not stated] / STAT5B (unphosphorylated, wild-type), fluorophore fusion [not stated] (parent)
chain 1: MAVWIQAQQLQGEALHQMQALYGQHFPIEVRHYLSQWIESQAWDSVDLDNPQENIKATQLLEGLVQELQKKAEHQVGEDGFLLKIKLGHYATQLQNTYDRCPMELVRCIRHILYNEQRLVREANNGSSPAGSLADAMSQKHLQINQTFEELRLVTQDTENELKKLQQTQEYFIIQYQESLRIQAQFGPLAQLSPQERLSRETALQQKQVSLEAWLQREAQTLQQYRVELAEKHQKTLQLLRKQQTIILDDELIQWKRRQQLAGNGGPPEGSLDVLQSWCEKLAEIIWQNRQQIRRAEHLCQQLPIPGPVEEMLAEVNATITDIISALVTSTFIIEKQPPQVLKTQTKFAATVRLLVGGKLNVHMNPPQVKATIISEQQAKSLLKNENTRNDYSGEILNNCCVMEYHQATGTLSAHFRNMSLKRIKRSDRRGAESVTEEKFTILFESQFSVGGNELVFQVKTLSLPVVVIVHGSQDNNATATVLWDNAFAEPGRVPFAVPDKVLWPQLCEALNMKFKAEVQSNRGLTKENLVFLAQKLFNNSSSHLEDYSGLSVSWSQFNRENLPGRNYTFWQWFDGVMEVLKKHLKPHWNDGAILGFVNKQQAHDLLINKPDGTFLLRFSDSEIGGITIAWKFDSQERMFWNLMPFTTRDFSIRSLADRLGDLNYLIYVFPDRPKDEVYSKYYTPVPCESATAKAVDGYVKPQIKQVVPEFVNASADAGGGSATYMDQAPSPAVCPQAHYNMYPQNPDSVLDTDGDFDLEDTMDVARRVEELLGRPMDSQWIPHAQS
chain 2: B2 chain 1
B3: STAT5A (unphosphorylated, wild-type), fluorophore fusion [not stated] / STAT5A (unphosphorylated, wild-type), fluorophore fusion [not stated] (parent)
chain 1: MAGWIQAQQLQGDALRQMQVLYGQHFPIEVRHYLAQWIESQPWDAIDLDNPQDRAQATQLLEGLVQELQKKAEHQVGEDGFLLKIKLGHYATQLQKTYDRCPLELVRCIRHILYNEQRLVREANNCSSPAGILVDAMSQKHLQINQTFEELRLVTQDTENELKKLQQTQEYFIIQYQESLRIQAQFAQLAQLSPQERLSRETALQQKQVSLEAWLQREAQTLQQYRVELAEKHQKTLQLLRKQQTIILDDELIQWKRRQQLAGNGGPPEGSLDVLQSWCEKLAEIIWQNRQQIRRAEHLCQQLPIPGPVEEMLAEVNATITDIISALVTSTFIIEKQPPQVLKTQTKFAATVRLLVGGKLNVHMNPPQVKATIISEQQAKSLLKNENTRNECSGEILNNCCVMEYHQATGTLSAHFRNMSLKRIKRADRRGAESVTEEKFTVLFESQFSVGSNELVFQVKTLSLPVVVIVHGSQDHNATATVLWDNAFAEPGRVPFAVPDKVLWPQLCEALNMKFKAEVQSNRGLTKENLVFLAQKLFNNSSSHLEDYSGLSVSWSQFNRENLPGWNYTFWQWFDGVMEVLKKHHKPHWNDGAILGFVNKQQAHDLLINKPDGTFLLRFSDSEIGGITIAWKFDSPERNLWNLKPFTTRDFSIRSLADRLGDLSYLIYVFPDRPKDEVFSKYYTPVLAKAVDGYVKPQIKQVVPEFVNASADAGGSSATYMDQAPSPAVCPQAPYNMYPQNPDHVLDQDGEFDLDETMDVARHVEELLRRPMDSLDSRLSPPAGLFTSARGSLS
chain 2: B3 chain 1
B4: STAT4 (unphosphorylated, wild-type), fluorophore fusion [not stated] / STAT4 (unphosphorylated, wild-type), fluorophore fusion [not stated] (parent)
chain 1: MSQWNQVQQLEIKFLEQVDQFYDDNFPMEIRHLLAQWIENQDWEAASNNETMATILLQNLLIQLDEQLGRVSKEKNLLLIHNLKRIRKVLQGKFHGNPMHVAVVISNCLREERRILAAANMPVQGPLEKSLQSSSVSERQRNVEHKVAAIKNSVQMTEQDTKYLEDLQDEFDYRYKTIQTMDQSDKNSAMVNQEVLTLQEMLNSLDFKRKEALSKMTQIIHETDLLMNTMLIEELQDWKRRQQIACIGGPLHNGLDQLQNCFTLLAESLFQLRRQLEKLEEQSTKMTYEGDPIPMQRTHMLERVTFLIYNLFKNSFVVERQPCMPTHPQRPLVLKTLIQFTVKLRLLIKLPELNYQVKVKASIDKNVSTLSNRRFVLCGTNVKAMSIEESSNGSLSVEFRHLQPKEMKSSAGGKGNEGCHMVTEELHSITFETQICLYGLTIDLETSSLPVVMISNVSQLPNAWASIIWYNVSTNDSQNLVFFNNPPPATLSQLLEVMSWQFSSYVGRGLNSDQLHMLAEKLTVQSSYSDGHLTWAKFCKEHLPGKSFTFWTWLEAILDLIKKHILPLWIDGYVMGFVSKEKERLLLKDKMPGTFLLRFSESHLGGITFTWVDHSESGEVRFHSVEPYNKGRLSALPFADILRDYKVIMAENIPENPLKYLYPDIPKDKAFGKHYSSQPCEVSRPTERGDKGYVPSVFIPISTIRSDSTEPHSPSDLLPMSPSVYAVLRENLSPTTIETAMKSPYSAE
chain 2: B4 chain 1

One experiment covers variants of B1. As to the kind of experiment: co-localization assay (quantitative fluorescence microscopy in HeLa cells). The settings on record: with STAT1 (unphosphorylated, wild-type), bait S1-NLS, test S1-F77A, 20 cells (parent 12 cells), parent: 0.98.
chain 1 F77A: the screen value is 0.64.

Another experiment covers variants of B2. The experiment is described as above. The note with it: with STAT5B (unphosphorylated, wild-type), bait S5B-NES, test S5B-L82A, 32 cells (parent 10 cells), parent: 0.97.
With chain 1 L82A, the screen value was found to be 0.63.

In the next experiment the parent is B3. The experiment is described as above. The note with it: with STAT5A (unphosphorylated, wild-type), bait S5A-NES, test S5A-L82A, 19 cells (parent 13 cells), parent: 0.97.
Take chain 1 L82A: the screen value was 0.54.

Variants of B4 are the subject of a further experiment. The description is as above. The note with it: with STAT4 (unphosphorylated, wild-type), bait S4-NES, test S4-L78S, 19 cells (parent 14 cells), parent: 0.95.
Consider chain 1 L78S, for which the screen value is 0.68.
